Laboratory results: paper PMC12376085

Molecular target: HLA-A2/β2M complex on T2 cells (no pulsed peptide) (human (endogenous in T2) | human)
Experiment: flow cytometry on cells

ILSLELMKL [… peptide] showed an MFI of surface HLA-A2 on peptide-pulsed T2 cells of 53900.

With RMFPNAPYL [… peptide (WT1 126–134)] the MFI of surface HLA-A2 on peptide-pulsed T2 cells was 74200.
